{"source": "patent US20110059888A1", "molecular_target": "human OT7T175 (metastin receptor) (human) (UniProt Q969F8)", "sequence (Q969F8 whole entry L364H)": "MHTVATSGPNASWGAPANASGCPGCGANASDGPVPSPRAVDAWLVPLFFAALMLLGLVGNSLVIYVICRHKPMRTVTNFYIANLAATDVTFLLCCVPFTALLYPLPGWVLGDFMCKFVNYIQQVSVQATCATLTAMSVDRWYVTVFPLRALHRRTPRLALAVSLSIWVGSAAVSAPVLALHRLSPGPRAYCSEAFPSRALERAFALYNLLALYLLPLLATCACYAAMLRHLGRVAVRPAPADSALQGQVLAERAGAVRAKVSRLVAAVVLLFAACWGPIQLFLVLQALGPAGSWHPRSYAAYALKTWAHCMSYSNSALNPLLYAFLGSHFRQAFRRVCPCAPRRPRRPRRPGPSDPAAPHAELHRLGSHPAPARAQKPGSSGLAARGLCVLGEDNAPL", "assay": "cell-based or functional assay", "note": "[ ]: non-standard residue; d: D form. Arg(Me) = CNC(=N)NCCC[C@H](N)C(=O)O; Dap(CONH2) = NC(=O)NC[C@H](N)C(=O)O; Ala(cPr) = N[C@@H](CC1CC1)C(=O)O; Hyp = O=C(O)[C@@H]1C[C@@H](O)CN1; Cha = N[C@@H](CC1CCCCC1)C(=O)O; Cba = N[C@@H](CC1CCC1)C(=O)O; Dap = NC[C@H](N)C(=O)O"}
{"binder": "Ac-[dY][Hyp]NT[Cha]G[Ala(cPr)]RW-NH2 (SMILES CC(=O)N[C@H](Cc1ccc(O)cc1)C(=O)N1C[C@H](O)C[C@H]1C(=O)N[C@@H](CC(N)=O)C(=O)N[C@H](C(=O)N[C@@H](CC1CCCCC1)C(=O)NCC(=O)N[C@@H](CC1CC1)C(=O)N[C@@H](CCCNC(=N)N)C(=O)N[C@@H](Cc1c[nH]c2ccccc12)C(N)=O)[C@@H](C)O)", "note": "[des(1)-Ac-[D-Tyr2,Hyp3,Thr5,Cha6,Ala(cPr)8,Trp10]MS10]", "values": [{"measurement": "Specific Activity (EC50 of test compound based on EC50 of Metastin (45-54); intracellular calcium, FLIPR) (ratio to EC50 of Metastin (45-54))", "result": 0.5}]}
{"binder": "Ac-[dY]ENT[Cha]G[Ala(cPr)]RW-NH2 (SMILES CC(=O)N[C@H](Cc1ccc(O)cc1)C(=O)N[C@@H](CCC(=O)O)C(=O)N[C@@H](CC(N)=O)C(=O)N[C@H](C(=O)N[C@@H](CC1CCCCC1)C(=O)NCC(=O)N[C@@H](CC1CC1)C(=O)N[C@@H](CCCNC(=N)N)C(=O)N[C@@H](Cc1c[nH]c2ccccc12)C(N)=O)[C@@H](C)O)", "note": "[des(1)-Ac-[D-Tyr2,Glu3,Thr5,Cha6,Ala(cPr)8,Trp10]MS10]", "values": [{"measurement": "Specific Activity (EC50 of test compound based on EC50 of Metastin (45-54); intracellular calcium, FLIPR) (ratio to EC50 of Metastin (45-54))", "result": 0.4}]}
{"binder": "Ac-[dY][Hyp]NTFGL[Arg(Me)]W-NH2 (also: Phe5-Gly6 amide bond replaced by CH2S)", "note": "[des(1)-Ac-[D-Tyr2,Hyp3,Thr5,Phe6Ψ(CH2S)Gly7,Arg(Me)9,Trp10]MS10]", "values": [{"measurement": "Specific Activity (EC50 of test compound based on EC50 of Metastin (45-54); intracellular calcium, FLIPR) (ratio to EC50 of Metastin (45-54))", "result": 0.7}]}
{"binder": "Ac-[dY][Hyp]NT[Cba]G[Ala(cPr)][Arg(Me)]W-NH2", "note": "[des(1)-Ac-[D-Tyr2,Hyp3,Thr5,Ala(cBu)6,Ala(cPr)8,Arg(Me)9,Trp10]MS10]", "values": [{"measurement": "Specific Activity (EC50 of test compound based on EC50 of Metastin (45-54); intracellular calcium, FLIPR) (ratio to EC50 of Metastin (45-54))", "result": 0.7}]}
{"binder": "Ac-[dY][Hyp]NT[Cha]G[Cba][Arg(Me)]W-NH2", "note": "[des(1)-Ac-[D-Tyr2,Hyp3,Thr5,Cha6,Ala(cBu)8,Arg(Me)9,Trp10]MS10]", "values": [{"measurement": "Specific Activity (EC50 of test compound based on EC50 of Metastin (45-54); intracellular calcium, FLIPR) (ratio to EC50 of Metastin (45-54))", "result": 0.5}]}
{"binder": "Ac-[dY][Hyp][Dap(CONH2)]A[Cha]G[Ala(cPr)][Arg(Me)]W-NH2 (SMILES CNC(=N)NCCC[C@H](NC(=O)[C@H](CC1CC1)NC(=O)CNC(=O)[C@H](CC1CCCCC1)NC(=O)[C@H](C)NC(=O)[C@H](CNC(N)=O)NC(=O)[C@@H]1C[C@@H](O)CN1C(=O)[C@@H](Cc1ccc(O)cc1)NC(C)=O)C(=O)N[C@@H](Cc1c[nH]c2ccccc12)C(N)=O)", "note": "[des(1)-Ac-[D-Tyr2,Hyp3,Alb4,Ala5,Cha6,Ala(cPr)8,Arg(Me)9,Trp10]MS10]", "values": [{"measurement": "Specific Activity (EC50 of test compound based on EC50 of Metastin (45-54); intracellular calcium, FLIPR) (ratio to EC50 of Metastin (45-54))", "result": 0.5}]}
{"binder": "Ac-[dY][Hyp][Dap(CONH2)]S[Cha]G[Ala(cPr)][Arg(Me)]W-NH2 (SMILES CNC(=N)NCCC[C@H](NC(=O)[C@H](CC1CC1)NC(=O)CNC(=O)[C@H](CC1CCCCC1)NC(=O)[C@H](CO)NC(=O)[C@H](CNC(N)=O)NC(=O)[C@@H]1C[C@@H](O)CN1C(=O)[C@@H](Cc1ccc(O)cc1)NC(C)=O)C(=O)N[C@@H](Cc1c[nH]c2ccccc12)C(N)=O)", "note": "[des(1)-Ac-[D-Tyr2,Hyp3,Alb4,Ser5,Cha6,Ala(cPr)8,Arg(Me)9,Trp10]MS10]", "values": [{"measurement": "Specific Activity (EC50 of test compound based on EC50 of Metastin (45-54); intracellular calcium, FLIPR) (ratio to EC50 of Metastin (45-54))", "result": 0.5}]}
{"binder": "Ac-[dY][Hyp][Dap(CONH2)]G[Cha]G[Ala(cPr)][Arg(Me)]W-NH2 (SMILES CNC(=N)NCCC[C@H](NC(=O)[C@H](CC1CC1)NC(=O)CNC(=O)[C@H](CC1CCCCC1)NC(=O)CNC(=O)[C@H](CNC(N)=O)NC(=O)[C@@H]1C[C@@H](O)CN1C(=O)[C@@H](Cc1ccc(O)cc1)NC(C)=O)C(=O)N[C@@H](Cc1c[nH]c2ccccc12)C(N)=O)", "note": "[des(1)-Ac-[D-Tyr2,Hyp3,Alb4,Gly5,Cha6,Ala(cPr)8,Arg(Me)9,Trp10]MS10]", "values": [{"measurement": "Specific Activity (EC50 of test compound based on EC50 of Metastin (45-54); intracellular calcium, FLIPR) (ratio to EC50 of Metastin (45-54))", "result": 0.7}]}
{"binder": "Ac-[dY][Hyp][Dap(CONH2)][Dap][Cha]G[Ala(cPr)][Arg(Me)]W-NH2 (SMILES CNC(=N)NCCC[C@H](NC(=O)[C@H](CC1CC1)NC(=O)CNC(=O)[C@H](CC1CCCCC1)NC(=O)[C@H](CN)NC(=O)[C@H](CNC(N)=O)NC(=O)[C@@H]1C[C@@H](O)CN1C(=O)[C@@H](Cc1ccc(O)cc1)NC(C)=O)C(=O)N[C@@H](Cc1c[nH]c2ccccc12)C(N)=O)", "note": "[des(1)-Ac-[D-Tyr2,Hyp3,Alb4,Dap5,Cha6,Ala(cPr)8,Arg(Me)9,Trp10]MS10]", "values": [{"measurement": "Specific Activity (EC50 of test compound based on EC50 of Metastin (45-54); intracellular calcium, FLIPR) (ratio to EC50 of Metastin (45-54))", "result": 0.7}]}
{"binder": "Ac-[dY][Hyp][Dap(CONH2)]T[Cha]GLRW-NH2 (also: Gly7-Leu8 amide bond replaced by -CH2CH2-)", "note": "[des(1)-Ac-[D-Tyr2,Hyp3,Alb4,Thr5,Cha6,Gly7Ψ(CH2CH2)Leu8,Trp10]MS10]", "values": [{"measurement": "Specific Activity (EC50 of test compound based on EC50 of Metastin (45-54); intracellular calcium, FLIPR) (ratio to EC50 of Metastin (45-54))", "result": 1.3}]}
{"binder": "Ac-[dY][Hyp][Dap(CONH2)]T[Cha]G[Ala(cPr)][Arg(Me)]W-NH2 (SMILES CNC(=N)NCCC[C@H](NC(=O)[C@H](CC1CC1)NC(=O)CNC(=O)[C@H](CC1CCCCC1)NC(=O)[C@@H](NC(=O)[C@H](CNC(N)=O)NC(=O)[C@@H]1C[C@@H](O)CN1C(=O)[C@@H](Cc1ccc(O)cc1)NC(C)=O)[C@@H](C)O)C(=O)N[C@@H](Cc1c[nH]c2ccccc12)C(N)=O)", "note": "[des(1)-Ac-[D-Tyr2,Hyp3,Alb4,Thr5,Cha6,Ala(cPr)8,Arg(Me)9,Trp10]MS10]", "values": [{"measurement": "Specific Activity (EC50 of test compound based on EC50 of Metastin (45-54); intracellular calcium, FLIPR) (ratio to EC50 of Metastin (45-54))", "result": 0.5}]}
{"binder": "Ac-[dY][Hyp]NT[Cha]GLRW-NH2 (also: Gly7Ψ(CH2CH2)Leu8: amide between Gly and Leu replaced by -CH2CH2-)", "note": "[des(1)-Ac-[D-Tyr2,Hyp3,Thr5,Cha6,Gly7Ψ(CH2CH2)Leu8,Trp10]MS10]", "values": [{"measurement": "Specific Activity (EC50 of test compound based on EC50 of Metastin (45-54); intracellular calcium, FLIPR) (ratio to EC50 of Metastin (45-54))", "result": 1.1}]}
{"binder": "Ac-[dY][Hyp][Dap(CONH2)]T[Cha]GL[Arg(Me)]W-NH2 (also: Gly7-Leu8 amide bond replaced by -CH2CH2-)", "note": "[des(1)-Ac-[D-Tyr2,Hyp3,Alb4,Thr5,Cha6,Gly7Ψ(CH2CH2)Leu8,Arg(Me)9,Trp10]MS10]", "values": [{"measurement": "Specific Activity (EC50 of test compound based on EC50 of Metastin (45-54); intracellular calcium, FLIPR) (ratio to EC50 of Metastin (45-54))", "result": 1.1}]}
{"binder": "Ac-[dY][Hyp]NTF[Dap]L[Arg(Me)]W-NH2", "note": "[des(1)-Ac-[D-Tyr2,Hyp3,Thr5,Dap7,Arg(Me)9,Trp10]MS10]", "values": [{"measurement": "Specific Activity (EC50 of test compound based on EC50 of Metastin (45-54); intracellular calcium, FLIPR) (ratio to EC50 of Metastin (45-54))", "result": 1.3}]}
